Data: PMC3223204, “Implantation Serine Proteinase 1 Exhibits Mixed Substrate Specificity that Silences Signaling via Proteinase-Activated Receptors” (PLoS ONE, 2011)
No end group written: not given here.

Target: T1, purified recombinant ISP1 (Mus musculus, UniProt Q924N9)
T1 construct: Myc (C); His6 (C); made in house; host or cells: Pichia pastoris SMD1168
T1 sequence (Q924N9 31-274 limits assumed): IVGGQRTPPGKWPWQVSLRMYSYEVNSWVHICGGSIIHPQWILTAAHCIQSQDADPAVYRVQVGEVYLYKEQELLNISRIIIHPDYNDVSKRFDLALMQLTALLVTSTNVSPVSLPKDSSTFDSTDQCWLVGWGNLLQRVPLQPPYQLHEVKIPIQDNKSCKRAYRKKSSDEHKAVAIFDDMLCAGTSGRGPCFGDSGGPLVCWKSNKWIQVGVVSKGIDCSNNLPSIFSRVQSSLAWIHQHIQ
Test: In vitro cleavage of synthetic peptides by ISP1 (HPLC, MALDI-TOF)
Type: biochemical
Conditions: for Cleavage of synthetic peptide by ISP1: 37°C, up to overnight, HPLC; for ISP1 cleavage site in synthetic peptide: MALDI-TOF / amino acid analysis / ES-MS
Experimental: Synthetic peptides (1 mg/ml) diluted in 25 mM Tris.Cl (pH 7.8) were incubated with 2.0 units of purified recombinant ISP1 (total volume of reaction mixture: 0.5 ml) at 37°C overnight. The reaction was terminated by the addition of 0.1% trifluoroacetic acid and the mixture was separated using HPLC with an acetonitrile gradient in 0.1% v/v trifluoroacetic acid. The positions of the hydrolysis products monitored by ultraviolet absorption (E215) were compared to the elution position of the intact peptide. The masses of the individual peaks (E215) were determined by MALDI-TOF mass spectroscopy and were used to deduce the predicted amino acid sequences, based on the parent peptide sequence (amino acids are abbreviated by their one-letter codes, e.g., A = alanine, R = arginine). Except where indicated, all chemical reagents were from VWR International (Mississauga, ON, Canada).
The rat PAR2 sequence representing the cleavage/activation domain (^30 GPNSKGR/ SLIGRLDT ^45P: tethered ligand sequence, underlined), the 27-mer synthetic sequence derived from the N-terminal residues […] of rat PAR2 (I^48 […] ^74) and a 17-mer synthetic peptide sequence derived from extracellular loop 2 of rat PAR2 (V^229 LPEEVLVGDMFSYFLS ^245) were selected for the proteolysis studies. […] The 17-mer ^229–245PAR2 sequence is the potential binding site of the activating peptide. […] These peptides at a concentration of 100 µM were incubated with implantation serine proteinase 1 for varying times up to overnight at 37°C. The incubation buffers were identical to the buffers used for the measurements of enzymatic activities using AMC-substituted peptide substrates. Reactions were terminated either by rapid freezing in liquid nitrogen or by the addition to the proteolysis sample of 2 volumes of a “stop solution” comprising 50% acetonitrile and 0.1% trifluoroacetic acid in water. Samples were either subjected immediately to HPLC analysis, with collection of the E215 peak fractions, or were stored at −80°C for further processing. The cleavage products in peaks of absorption resolved by HPLC were quantified (E215), collected and their identity was established by mass spectral MALDI analysis. Some of the peaks recovered from the HPLC columns, but not ascertained by mass spectral analysis (MALDI-TOF), were identified by total amino acid analysis. Analyses were done at the Southern Alberta Mass Spectrometry Facility at the University of Calgary, Faculty of Medicine (Calgary, Alberta, Canada).

Row | Substance | Cleavage of synthetic peptide by ISP1 | ISP1 cleavage site in synthetic peptide
1 | RRFYIQ-NH2 | cleaved by ISP1 | –
2 | cleavage/activation sequence of PAR2: sequence representing the cleavage/activation site of rat PAR2 (30 GPNSKGR/ SLIGRLDT 45P) (GPNSKGRSLIGRLDTP; UniProt Q63645 30-45, looked up, fragment) | not cleaved | –
3 | VLPEEVLVGDMFSYFLS [17-mer synthetic peptide, derived from the extracellular loop 2 domain of rat PAR2] | successfully cleaved | between a tyrosine (P1 sub site) residue and a phenylalanine (P1′ sub site) residue; a phenylalanine (P1 sub site) and a leucine (P1′ sub site) residue; a leucine (P1 sub site) and a serine (P1′ sub site) residue
4 | ITGKGAPVEPGFSVDEFSASVLTGKLT-NH2 [27 mer peptide] | successfully cleaved | between an alanine (P1 sub site) residue and a serine (P1′ sub site) residue
